Source: patent EP4545559A2 (INSTITUTO BUTANTAN, dated 2025)
Read-outs that look alike come from different tables or passages of the source.

Columns and labels:
[1] = biological target: T1, RBD Gamma (K417T/E484K/N501Y) (SARS-CoV-2, UniProt P0DTC2 319-541); experiment: SPR, antigen on CM5 sensor
T1 construct: domain: RBD

[2] = biological target: T2, RBD Delta (L452R/T478K) (SARS-CoV-2, UniProt P0DTC2 319-541); experiment: SPR, antigen on CM5 sensor
T2 construct: domain: RBD

[3] = biological target: T3, RBD Omicron (G339D, S371L, S373P, S375F, K417N, N440K, G446S, S477N, T478K, E484A, Q493R, G496S, Q49 (SARS-CoV-2, UniProt P0DTC2 319-541)); experiment: SPR, antigen on CM5 sensor
T3 construct: range 319-541

[4] = biological target: T1, RBD Gamma (K417T/E484K/N501Y); experiment: SPR kinetics; *** did not dissociate until 36000sec
[5] = biological target: T2, RBD Delta (L452R/T478K); experiment: as above
[6] = biological target: T3, RBD Omicron (G339D, S371L, S373P, …); experiment: as above
[7] = biological target: T1, RBD Gamma (K417T/E484K/N501Y); experiment: SPR, antigen on CM5 sensor; remark: listed apart in the source
[8] = biological target: T2, RBD Delta (L452R/T478K); experiment: SPR, antigen on CM5 sensor; remark: listed apart in the source
[9] = biological target: T3, RBD Omicron (G339D, S371L, S373P, …); experiment: SPR, antigen on CM5 sensor; remark: listed apart in the source
[10] = biological target: T1, RBD Gamma (K417T/E484K/N501Y); experiment: SPR kinetics; ** dissociation in 36000sec
[11] = biological target: T2, RBD Delta (L452R/T478K); experiment: SPR kinetics; *** did not dissociate until 36000sec; remark: listed apart in the source
[12] = biological target: T3, RBD Omicron (G339D, S371L, S373P, …); experiment: as above; remark: listed apart in the source
[13] = biological target: T1, RBD Gamma (K417T/E484K/N501Y); experiment: SPR, antigen on CM5 sensor; remark: listed apart in the source
[14] = biological target: T2, RBD Delta (L452R/T478K); experiment: SPR, antigen on CM5 sensor; remark: listed apart in the source
[15] = biological target: T3, RBD Omicron (G339D, S371L, S373P, …); experiment: SPR, antigen on CM5 sensor; remark: listed apart in the source
[16] = biological target: T1, RBD Gamma (K417T/E484K/N501Y); experiment: SPR kinetics; * dissociation in 360sec
[17] = biological target: T2, RBD Delta (L452R/T478K); experiment: SPR kinetics; * dissociation in 360sec
[18] = biological target: T3, RBD Omicron (G339D, S371L, S373P, …); experiment: SPR kinetics; * dissociation in 360sec
[19] = biological target: T2, RBD Delta (L452R/T478K); experiment: SPR, antigen on CM5 sensor; remark: listed apart in the source
[20] = biological target: T2, RBD Delta (L452R/T478K); experiment: SPR kinetics; * dissociation in 360sec; remark: listed apart in the source
[21] = biological target: T1, RBD Gamma (K417T/E484K/N501Y); experiment: SPR, antigen on CM5 sensor; remark: listed apart in the source
[22] = biological target: T2, RBD Delta (L452R/T478K); experiment: SPR, antigen on CM5 sensor; remark: listed apart in the source
[23] = biological target: T3, RBD Omicron (G339D, S371L, S373P, …); experiment: SPR, antigen on CM5 sensor; remark: listed apart in the source
[24] = biological target: T1, RBD Gamma (K417T/E484K/N501Y); experiment: SPR kinetics; * dissociation in 360sec; remark: listed apart in the source
[25] = biological target: T3, RBD Omicron (G339D, S371L, S373P, …); experiment: SPR kinetics; * dissociation in 360sec; remark: listed apart in the source
[26] = biological target: T2, RBD Delta (L452R/T478K); experiment: SPR kinetics; *** did not dissociate until 36000sec; remark: listed apart in the source
[27] = biological target: T1, RBD Gamma (K417T/E484K/N501Y); experiment: SPR, antigen on CM5 sensor; remark: listed apart in the source
[28] = biological target: T2, RBD Delta (L452R/T478K); experiment: SPR, antigen on CM5 sensor; remark: listed apart in the source
[29] = biological target: T3, RBD Omicron (G339D, S371L, S373P, …); experiment: SPR, antigen on CM5 sensor; remark: listed apart in the source
[30] = biological target: T3, RBD Omicron (G339D, S371L, S373P, …); experiment: SPR kinetics; * dissociation in 360sec; remark: listed apart in the source
[31] = biological target: T1, RBD Gamma (K417T/E484K/N501Y); experiment: SPR kinetics; *** did not dissociate until 36000sec; remark: listed apart in the source
[32] = biological target: T2, RBD Delta (L452R/T478K); experiment: as above; remark: listed apart in the source

B1: Monoclonal antibody S.9.2.B8 (antibody, V domains shown)
VH: EVQLVETGGGLIQPGGSLRLSCAASGLIVSSNYMTWVRQAPGKGLEWVSVLYSGGTTYYADSVKGRVTISRDNSKNTLYLQVNSLTVADTAVYYCARDLADRGGMDVWGQGTTVTVSS
VL: SYELTQPPSVSVAPGQTARITCGGNNIGSQSVHWYQQKPGQAPVLVVYDDSDRPSGIPERFSGSKSGNMATLTISRVEAGDEADYYCQVWDSSSDHVVFGGGTKLTVL
notes: also called mAb S.9.2.B8
With B1 the RU [1] was 74 RU, the RU [2] was 163 RU and the RU [3] was 22 RU. It also gave a Kd [4] of about 1.17 nM, a Kd [5] of about 0.000836 nM and a Kd [6] of about 1.77 nM.

B2: Monoclonal antibody S.9.4.A9 (antibody, V domains shown)
VH: QVQLVQSGAEVKKPGASVKVSCKASGYTFISYGISWVRQAPGQELEWMGWISAYNGNTNYAQKLQGRVTMTRDTSTTTAYMELRSLRSDDTAVYYCARVLGGLWFGEPKARHSDYWGQGTLVTVSS
VL: IQMTQSPSSLSASVGDRVTITCRASQGINNYLAWFQQKPGKAPKSLIYAASSLHSGVPSRFSGSGSGTDFTLTISSLQPEDFATYYCQQYNTYPITFGQGTRLEIK
notes: also called mAb S.9.4.A9
B2 showed an RU [7] of 3 RU, an RU [8] of 4 RU and an RU [9] of 1 RU. The Kd [10] was 0.254 nM, the Kd [11] was about 0.0316 nM and the Kd [12] was about 79.6 nM.

B3: Monoclonal antibody S.11.1.F4 (antibody, V domains shown)
VH: QVQLVQSGAEVKKPGSSVRVSCKASAGTFSSYAIRWVRQAPGQGLEWMGTIIPIFGTTNYAQKFQGRVSITADESTNTAYMELSSLRSEDTAVYYCARDLETSPLYGLDVWGQGTTVTVSS
VL: DIQMTQSPSSLSASVGDRVTITCRASQTISRYLNWYQQKPGKPPKLLIFAASTLHSGVPSRFSGSGSGTEFTLTITSLHPDDFSTYYCQQTYSSPHTFGQGTKLEIK
notes: also called S.11.1.F4 mAb
B3 was tested, and the RU [13] was 218 RU, the RU [14] was 743 RU and the RU [15] was 153 RU. It also gave a Kd [16] of 1.21 nM, a Kd [17] of 1.89 nM and a Kd [18] of 0.584 nM.

B4: Monoclonal antibody S.11.1.H1 (antibody, V domains shown)
VH: QVQLVESGGGVVQPGRSLTLSCSASGFPFSTYVMHWVRQAPGKGLEWVAVISSDGSNENYADSVKGRFTVSRDNFGSTLFLQMSTLRPDDTAVYYCARTAGRGYADRGRLDTWGQGTLVTVSS
VL: not shown
notes: also called mAb S.11.1.H1
Binder B4 has an RU [19] of 913 RU and a Kd [20] of 0.548 nM.

B5: Monoclonal antibody S.9.1.H5 (antibody, V domains shown)
VH: QVQLVESGGGVVQPGRSLRLSCAASGFTFSRYGMHWVRQAPGKGLEWVALISYDGTNKYYADSVKGRFTISRDNSKSTQYLQMNSLRAEDTAVYFCAKESFGYASGSYYFDYWGQGTLVTVSS
VL: DIQMTQSPSSLSASVGDRITITCQASQDISNYLNWYQQKPGKAPKLMIYDASNLETGVPSRFSGSGAGTDFTFTISSLQPEDFARYYCQQYGNLPLTFGGGTKVEIK
notes: also called mAb S.9.1.H5
B5 gave an RU [21] of 376 RU, an RU [22] of 942 RU and an RU [23] of 175 RU. It also gave a Kd [24] of 1.11 nM, a Kd [25] of 1.83 nM and a Kd [26] of about 0.197 nM.

B6: Monoclonal antibody S.9.1.C9 (antibody, V domains shown)
VH: QVQLVESGGGVVQPGRSLGLSCAVSGFTFSNYGMDWVRQAPGKGLEWVAVTSYDGSNKYYADSVKGRFTISRDNSKNTLYLQMNSLRTEDTAVYYCAKHGGGPYCGGGTCYLAYFDYWGQGTLVTVSS
VL: DIQMTQSPSSLSASVRDRVTITCQASQDISKFLNWYQQKPGKAPKLLIYDASNLETGVPSRFSGSGSGTDFTFTISSLQPEDIATYYCQQYDNLPITFGQGTRLEIKR
notes: also called mAb S.9.1.C9
For B6, the RU [27] was 294 RU, the RU [28] was 636 RU and the RU [29] was 137 RU. The Kd [30] was 0.241 nM, the Kd [31] was about 0.362 nM and the Kd [32] was about 0.455 nM.
